# The nanobody polyreactivity screen of Harvey et al. (2022)
# Test: yeast display, Sf9 membrane polyspecificity reagent, FACS + sequencing; frameworks hold sequencing errors
# Outline: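 Sorting gates, low and high (top ~1%), were placed on anti-HA fluorescence to track expression and on streptavidin fluorescence to track reagent binding. A clone's polyreactivity label is taken from the gate it came out of. The reagent was 10% biotinylated, detergent-solubilized Sf9 membrane, applied for 1 hour at 4 °C to galactose-induced yeast display cells.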
row,Sequence,polyreactivity (PSR sort gate)
1,QVQLVESGGGIVQAGGSLRVSCAASGRTFYSSAMGWYRQAPGKERELVAAISWNGGSTYYADSVKGRFTISRDNAKNTVYLQMNSLNPEDTAVYYCAATYLLRGDAYYSWGQGTQVTVSS,high polyreactivity
2,QVQLVESGGGIVQAGGSLSLSCAASGRTFIRNAIGCYRQAPGKERELVAAINSGGITNYADSVKGRFTISRDNANNTVYLQMNSLKPEDTAVYYCNARQVLYGLYLRAYPYEYWGQGTQVTVSS,low polyreactivity
3,QVQLVESGGGIVQAGGSLSLSCAASGSTFSIYAMGWSRQATGTEREVVAAISGSGSRTYYADSVKGRFTISRDNEKNSVYLQMNMLKPEDTAVYYCAALGRHRDGFDFNYWGQGTQVTLSS,high polyreactivity
4,QVQLVESGGGIVQAGGTLRLSCAASGSTFFYYVMGWYRQAPGKERELVAAITSSGGGTYYADSVKGRFTISRDNAKNTVYLQMKSLKPEDTAVYYCAKPVWWRDYRHGGRFGYWGQGTQVTVSS,low polyreactivity
5,QVQLVESGGGIVQAGRSLRLSCAASGFTFYWYAMGWYRQAPGKERELVAAISWSGGSTYYADSVKGRFTISRDNETNTVYLQMYSLKPEDTAVYYCAADNYFFGDEDYWGQGTQVTVSS,high polyreactivity
6,QVQLVESGGGIVQAGRSLRLSCSASGFIFAIKAMGWYRQAPGKERELVAAITGGGSTSYADSVKGRFTISRDNAKNTVYLQMNSLKPEDTAVYYCATDRLTYTKYGYWGQGTQVTVSS,low polyreactivity
7,QVQLVESGGGIVQAGRSLRLTCAASGITFKAYTMGWYRQAPGKERELVATISRGGRTYADSVKGRFTISRDNAKNTVYLQINSLKPEDTAVYYCAADKYWAQNDYWGQGTQVTVSS,low polyreactivity
8,QVQLVESGGGIVQAVGSLRLSCAASGFTLERYAMVWYRPAPGKERELVAAITQSGVSTYYADSVKGRFTISRDNAKNTVYLQMNSLKPEDTAVYYCNALRIYHHYEYDYWGQGTQVTVSS,high polyreactivity
9,QVQLVESGGGIVQEGRSLSISCAASGSTFYTYAMGWYRPAPGKERELVAAITQSGGRTYYADSVKGRFTISRDNANNTVYLEMNSLKPEDTAVDYCNAPPYTGYDWGQGTQVSVSS,high polyreactivity
10,QVQLVESGGGKVKAGGSLRISCAASGRTYRYAMGWYRQAPGKERELVAAITSGGRTNYADSVKGRFTISRDNAKNTVYLQMNSLKPEDTAVYYCAAQWYTVITSWYGYWGQGTQVTVSS,low polyreactivity
11,QVQLVESGGGKVQAGGSLRLSCAAYGIIFYPYDMGWNRQSPAKERELVAAISIGGGSTYYADSVKGRFTISRDNAKNTVYLQMNSLKPEDNAVYYCAAGTPYGILGYYYWGQGSQVTVSS,low polyreactivity
12,QVQLVESGGGKVQAVGSLRLSCAASGRTFYPYAMGWYRQAPGKERELVAVITWSTGNTYYADSVKGRFTISRDNAKNTVYLQMNSLKPEDTAVYYCAAAYYRYRGTIRYYYWGQGTQVTVSS,high polyreactivity
13,QVQLVESGGGLAQAGGSLRLSCAASGRTFRTYTMGWYRQAPGKERELVAAISWSGSSTYYADSVKGRFTISRDNAKNTVYLQMNSLKPEDTAVYYCAARGLYDYGYWGQGTQVTVSS,high polyreactivity
14,QVQLVESGGGLDHAGGRLRLSCAASGSIFYENVMGWYRQAPGKERELVAGISRSGGRTYYADSVKGSFTISRDYAKNTVYLQMNSLQPVDTAVYYCAALTPRNRYRKFDYWGQGTQVTVSS,high polyreactivity
15,QVQLVESGGGLDLAGGSLRLSCAASGRTFLYYAMGWYRQAPWKDREFVASIRRGGGSTYYADSVKGRFTFSRDNAKHTVYLQMHSLKPVDTAVYYCAAQPYTLSLFRLNYDYWGQGTQVTVSS,low polyreactivity
16,QVQLVESGGGLDQAAGSLRLTCAASGTTFEYYAMGLYRQAPAKEREFVAAITGSGASTYYADSVKGRFTISRDNAKNTVYLQMNSLKPEDTAVYYCIALSALAVEDGYWGQGTQVTVSS,low polyreactivity
17,QVQLVESGGGLDQAGGCLRLSCAASGSIFRTYAMGWYRQAPGKERELVADITRRGGSTYYADSVKGRFTISRDNAKYTVNLQLNSLKPEETAVYYCAAYGYTSAGDSARLDYWGQGSQVTVSS,high polyreactivity
18,QVQLVESGGGLDQAGGRLRLSCAASGRTFNVNVMGWYRQSPGKERELVAAIRYTGGSTYADSVKGRFTISRDNAKNTVYLQMNSLKPEDTAVDYCNADTFFPFDHGMDYWGQGTQVTVSS,low polyreactivity
19,QVQLVESGGGLDQAGGSHRLSCAASGRIFYIYTMGWYRQPPGKEREFVAGINWNGGSTYYADSVKGRFTISRDNAKNTVYLQMNSLKPEVTAVYYCNADQYWDRYYYWGQGTQVTVSS,low polyreactivity
20,QVQLVESGGGLDQAGGSLPLSCAASGRTFRYYDRGSYRQAPGKERELVARISISGAGTYYADSVKGRFTISRDNAKNTVYFEMNSLKPEDTAVYYCAADLFWWQKTISGGDYWGQGTQVNVSS,low polyreactivity
21,QVQLVESGGGLDQAGGSLPLTCAASGSIFDPNAMGWYRQAPGKERELVANNTIGGRTNYADSVKGRFTISRDNPKNTVYLQMNSLKPDDTAVFYCAKDSPYTSVTVLAPIIYESWGKGTQVTVSS,low polyreactivity

row,Sequence,polyreactivity (PSR sort gate)
1,QVQLVESGGGLDQAGGSLRISCAASGRTFRNYAMGSYRQAPGKERELVPAISFSGGRTYYADSVKGRFTISRDNAKNTVYLQMNSLKPEDTAVYYCAKVSYYRGDGDEDYGYWGQGTQVPVSS,high polyreactivity
2,QVQLVESGGGLDQAGGSLRLICAASGITFFPYAMVWYRQAPGKEKELVAAISSGSSTYYADSVKGRFTISRDNAKNTVYLQMNSLKPEDTAVYYCATRRDLHDRYEYDYWGQGTQVTVSS,low polyreactivity
3,QVQLVESGGGLDQAGGSLRLICAASGLTFYLYAMGWYRQAPGKERELVAAISTRGGSTRYADSVKGRFTISRDNAKNTVYLQMNSLKPEDTAVFDCNAVSKWLEYDYWGQGTQVTVSS,high polyreactivity
4,QVQLVESGGGLDQAGGSLRLICAASGSTFYIYAMGWYRQAPGKEREFVAAIDFSGSSTYADSVKGRFTISRDNAKNPVYLQMNTLKPEDTAVYYCAAYQIYQYDGPYDYWGQGTQVTVSS,low polyreactivity
5,QVQLVESGGGLDQAGGSLRLISAASGYVMGWYRQAPEKEKELVATITRGTSTYYADSVKGRFTISRDNAKNTVYFQMNSLKPDDTAVYYCAARTTSGEWPPGNICTYLYDYWGQGTQVTVSS,low polyreactivity
6,QVQLVESGGGLDQAGGSLRLRCAASGSTFYVNAIGWYRQAPGKERELVAAITSTGTTHNADSVKGRFTISRDNAKKTVYLQMNSLKPEDTAVYYCAAGDQYKTRRNGYGYWGQGTQVTVSS,high polyreactivity
7,QVQLVESGGGLDQAGGSLRLSCAASARIYGYYANGWYRQAPGKERELVAAINSGGSTYYADSVKGRFTISRDNAKNTVYLQMNSLKPEDTAVYYCAAYKFSVHGYDYWGQGTQGTVSS,high polyreactivity
8,QVQLVESGGGLDQAGGSLRLSCAASGFIFGRYTMVWYRPAPGKEMELVAAISRGGITNYADSEKGRFTISRDNAKNTVYLQMNSLKPEDTAVYYCATTRDYWRGRSYYYWGQGTQVTVSS,high polyreactivity
9,QVQLVESGGGLDQAGGSLRLSCAASGFIFLDYAMGWYRRAPGKERELVAAISSRGARTYYADSVKGRFTISRDNAKNTFYLQMNSLKPEDTAVYYCAARGPLDRYGYWGQGTQVTVSS,high polyreactivity
10,QVQLVESGGGLDQAGGSLRLSCAASGFIFPGNAMGWYRQAPGKERELVAAISWRVGRTYYADSVKGRFTISRDNAKNTVYLQMNSLKPEDTAVYYCAVARSSPEYYYWGQGTQVTVSS,high polyreactivity
11,QVQLVESGGGLDQAGGSLRLSCAASGFIFRSYTMGWYRQEPRKEREFVPAITWTGGSTYYADSVKGRFTISRDNAKNTVYLQMNSLKPEDTAVYYCNAANWHYSTAPKPYAFDYWGQGTQVTVSS,low polyreactivity
12,QVQLVESGGGLDQAGGSLRLSCAASGFIYSSYGMGWYRQAPGKERELDAAISRSGGSTYYADSVKGRFTISRDNAKNTVYLEMNSLKPEDTAVYYCATAYSWRNADWFAYSYDYWGQGTQVTVSS,low polyreactivity
13,QVQLVESGGGLDQAGGSLRLSCAASGFTFGSNAMGWYRQAPGKERELVASITTRGGSTYYADSVKGRFTISRDNANNTVYLQMNSLKPEDTAVYYCAARARYPNWTYYYWGQGTQVTVSS,high polyreactivity
14,QVQLVESGGGLDQAGGSLRLSCAASGFTFRKNAMGWYRQAPGKERELVAVISYSGGSTYYADSVNGRFTISRDSANNTVYLQMNSQKPEDSAVYYCNAVGWTRYWRIGWSAYYYWGQGTQVTVSS,high polyreactivity
15,QVQLVESGGGLDQAGGSLRLSCAASGFTFRYYAMGWYRQAPRKERELVAAIRRGGTTNYADSVKGRFTISRDNAKNTVYLQMNSLKPEDTAVYYCANYRYGYDYWGQGTQVTVSS,high polyreactivity
16,QVQLVESGGGLDQAGGSLRLSCAASGGIFSVYAMGWYRQAPGKEREFVAAISKSGGRTYYADSVKGRFTISRDTAKKTVYLQMNCLKQVDTAVYYCNADVYPYYRKPWMDYWGQGSQVTVSS,low polyreactivity
17,QVQLVESGGGLDQAGGSLRLSCAASGIIFAANAMGWSRQAPGKERELVAAISKNGGITYYADSVQGRFTISRDNAKNTVDLQRNSLKPEDTAVYYCAARWRQTRSYYYWGQGTQVNVSS,high polyreactivity
18,QVQLVESGGGLDQAGGSLRLSCAASGIIFGVNVMGWYRQAPGKERELVATITWRGDSTYYADSVKGRFTISRDNAKNTVYLQMNSLKPEDTAVYYCARGARTGVREDDYWGQGTQVTLSS,low polyreactivity
19,QVQLVESGGGLDQAGGSLRLSCAASGIIFKYYAMGWYRQAPGKERELVAAINYSGGRTYYADSVKGRFTISRDNAKNTVYLQMNSLKPEDTAVYYCAKVPAYADRGKFDYWGQGTQVTVSS,high polyreactivity
20,QVQLVESGGGLDQAGGSLRLSCAASGITFFNYAMGWYRQAPGKEREFVAGIDSSGGSTSYADSVKGRFTISRDNAKNTVYLQMNSLKPEDTAVYYCAADRTGSHFDYWGQGTQVTVSS,low polyreactivity
